Results on four molecules are retold here after EP4763867A1 (Shanghai Mabgen Biotech Ltd., dated 2026).

The target in test [1] is T1, human PD-1 (SEQ ID NO: 1) expressed on cells (human, UniProt Q15116 25-288). Description: cell-based or functional assay.
The target in test [2] is T2, Biotinylated human PD-1 (AcroBiosystems, PD1-H82E4) (human, UniProt Q15116 25-167, biotinylated (site not stated)).
T2 construct: Screening antigen of the yeast display library; also called human PD-1 antigen (screening antigen)
T2 sequence (Q15116 25-167 limits assumed): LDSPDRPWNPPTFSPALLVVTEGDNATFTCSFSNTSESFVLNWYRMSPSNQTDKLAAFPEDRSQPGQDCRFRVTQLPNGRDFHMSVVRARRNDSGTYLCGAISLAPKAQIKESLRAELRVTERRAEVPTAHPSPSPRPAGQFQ
Description: screening of a VHH yeast display library with biotinylated antigens.

For test [3], the target named is T3, IL-2Rβ and IL-2Rγ on M07e cells (moderate-avidity IL-2 receptor IL-2Rβγ) (human, UniProt P14784 27-551; P31785 23-369).
T3 sequence (looked up) 1: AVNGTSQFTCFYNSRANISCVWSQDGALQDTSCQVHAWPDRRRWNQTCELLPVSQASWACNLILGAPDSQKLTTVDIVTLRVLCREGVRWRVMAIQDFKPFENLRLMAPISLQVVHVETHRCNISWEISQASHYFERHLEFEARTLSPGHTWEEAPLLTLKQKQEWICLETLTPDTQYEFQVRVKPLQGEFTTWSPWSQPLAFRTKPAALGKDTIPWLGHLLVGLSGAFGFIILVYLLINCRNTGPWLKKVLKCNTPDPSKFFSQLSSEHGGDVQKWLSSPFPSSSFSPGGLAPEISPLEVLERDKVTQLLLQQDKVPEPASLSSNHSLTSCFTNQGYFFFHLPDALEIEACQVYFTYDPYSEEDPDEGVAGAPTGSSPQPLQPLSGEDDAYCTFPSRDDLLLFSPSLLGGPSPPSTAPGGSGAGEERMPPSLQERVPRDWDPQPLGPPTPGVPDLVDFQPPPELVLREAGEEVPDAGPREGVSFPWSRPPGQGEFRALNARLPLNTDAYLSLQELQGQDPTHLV
T3 sequence (looked up) 2: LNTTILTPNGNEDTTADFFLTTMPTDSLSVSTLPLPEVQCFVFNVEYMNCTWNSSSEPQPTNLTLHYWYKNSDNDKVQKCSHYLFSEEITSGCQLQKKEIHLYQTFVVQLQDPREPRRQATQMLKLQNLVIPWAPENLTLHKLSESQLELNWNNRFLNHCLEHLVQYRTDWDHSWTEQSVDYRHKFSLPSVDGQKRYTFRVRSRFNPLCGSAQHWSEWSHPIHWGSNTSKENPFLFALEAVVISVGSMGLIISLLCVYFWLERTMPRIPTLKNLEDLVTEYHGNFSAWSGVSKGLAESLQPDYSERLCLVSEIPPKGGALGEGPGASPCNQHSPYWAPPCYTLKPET
The test is described as follows: cell-based or functional assay.

Test [4] deals with T1, human PD-1 (SEQ ID NO: 1) expressed on …. The test is described as follows: cell-based or functional assay. This is another data set of the same source.

Like-named read-outs stand apart in the source and are kept apart here.

T1 sequence (Q15116 25-288 limits assumed): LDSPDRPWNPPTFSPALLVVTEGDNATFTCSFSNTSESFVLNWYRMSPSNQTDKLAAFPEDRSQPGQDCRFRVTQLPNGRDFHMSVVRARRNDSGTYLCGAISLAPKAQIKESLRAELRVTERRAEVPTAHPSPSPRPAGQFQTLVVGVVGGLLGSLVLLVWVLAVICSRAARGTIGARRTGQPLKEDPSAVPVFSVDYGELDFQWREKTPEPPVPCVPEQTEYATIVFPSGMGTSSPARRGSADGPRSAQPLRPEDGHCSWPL

B1: A17_hIgG4 (antibody, V domains shown)
VH: EVQVVESGGGLVQPGGSLRLSCVASGLTFSDYSMSWYRQAPGKERELVAIISGSGVIAHYVDSVKGRFTISRDNAKSTVYLQMVSLKPEDRGVYYCRAVSDWDDYWGQGTQVTVSS
For the molecule B1, the “activity IC50, PD-1/PD-L1 NFAT reporter gene system” value in test [1] worked out at 1.2 nM.

B2: A17 (VHH)
VHH: EVQVVESGGGLVQPGGSLRLSCVASGLTFSDYSMSWYRQAPGKERELVAIISGSGVIAHYVDSVKGRFTISRDNAKSTVYLQMVSLKPEDRGVYYCRAVSDWDDYWGQGTQVTVSS
notes: also called Variable region of A17
As for B2, the binding result in test [2] is listed as “binds”.

B3: PEGylated IL-2 mutant (PEG-IL-2v) (ligand)
chain: APASSSTKKTQLQLEHLLLDLQMILQGISNYKNPKLTRMLTAKFYMPKKATELKHLQCLEEELKPLEEVLQGAQSKNFHLRPRDLISNINVIVLELKGSETTFMCEYADETATIVEFLNRWITFAQSIISTLT
modifications: PEGylated (site and PEG not stated)
With B3, in test [3], the “M07e proliferation, EC50” value came out at 20.9 nM and the “M07e-hPD1 proliferation, EC50” value worked out at 13.3 nM.

B4: A17m0902_hIgG4 (antibody, V domains shown)
VH: EVQLVESGGGLVQPGGSLRLSCAASGLTFSDYSMSWYRQAPGKGRELVAIISGSGVITHYVDSVKGRFTISRDNAKNTLYLQMRSLRAEDTAVYYCRAVSDWEDYWGQGTQVTVSS
With B4, in test [4], the “activity IC50, PD-1/PD-L1 NFAT reporter gene system” value is 0.435 nM.
